Measurements: patent publication US20140274766A1, “METHODS OF USING F-SPONDIN AS A BIOMARKER FOR CARTILAGE DEGENERATIVE CONDITIONS AND BONE DISEASES” (priority 2009, published 2014)

What was measured:
[1] = tested on: chondrocytes in monolayer culture; experiment: F-spondin effects on genes/gene products, preliminary experiments with chondrocytes in monolayer culture; format: cell-based, human; set-up: key to TNFα regulation / IL-1β regulation / AGC1 regulation / PGE2 regulation / MMP-13 regulation / TGF-β regulation / BMP-2 regulation / MMP-1 regulation / IL-8 regulation / IL-6 regulation / COL2A1 regulation: F-spondin-mediated upregulation*; downregulation**
Method: F-spondin induced both catabolic and anabolic gene/gene products in chondrocytes including BMP-2, type II collagen, TGF-β1, COX-2, mPGES and PGE2. To begin to address the question of whether selected F-spondin effects in cartilage are mediated by prostaglandin production, we have begun studies to characterize the effect of PGE2 in cartilage. Addition of PGE2 (1-10 uM) to cartilage explants inhibited type II collagen, aggrecan expression, ^35SO4 incorporation, as well as increased type II collagen degradation as assessed by C12C ELISA (IBEX). […] Relative to normals, NURR1 was overexpressed in OA cartilage (2-5 fold) and synovium (2 fold), confirmed by QPCR. Incubation of OA chondrocytes with PGE2 (1-10 uM) induced NURR1 expression (20-50 fold), as analyzed by QPCR. Since NURR1 binds to the NURR1 cis-acting sequence (NBRE) in the promoter region of a variety of genes, we examined the effect of adenoviral-mediated over-expression of NURR1 in chondrocytes.
For initial experiments, chondrocytes isolated from OA knee joints will be used, building from our previous observations using monolayer cultures of these cells (Attur M G, Dave M, Cipolletta C, Kang P, Goldring M B, Patel I R, et al. Reversal of autocrine and paracrine effects of interleukin 1 (IL-1) in human arthritis by type II IL-1 decoy receptor. Potential for pharmacological intervention. J Biol Chem 2000; 275(51):40307-15). However, because OA chondrocytes endogenously express F-spondin, at least initially, there is a potential for a masking effect between control and F-spondin-transduced cultures. To address this, experiments will also be performed in both “normal” chondrocytes isolated from non-arthritic cartilage (obtained from NDRI, Philadelphia) and immortalized C28I2 chondrocytes, where endogenous F-spondin expression is low and absent, respectively (unpublished data). Using this experimental culture system, we expect similar metabolic responses among chondrocyte sources, however if variation between sources is observed, to F-spondin either with or without IL-1, they will be noted and investigated further. For each group and time point, alginate cultures and conditioned cell culture media supernatants will be analyzed by quantitative PCR, ELISA and biochemical assays for molecular markers associated with cartilage anabolism and catabolism. Based on our preliminary findings with F-spondin and IL-1 treatment of monolayer chondrocytes, we predict that at least some of these molecules will be modulated in alginate cultures.

[2] = tested on: OA cartilage explant cultures; details: cited from earlier work
[3] = tested on: latent TGF-β1 in OA cartilage explants; experiment: Activation of latent TGF-β1 in OA cartilage explant cultures (ELISA); format: cell-based, human; details: F-spondin 1 μg/ml, 24 h
Method: FIG. 12: Activation of Latent TGF-β1 by exogenous addition of F-spondin in OA cartilage explant cultures: Human OA cartilage was grown as explant cultures in serum free Ham'F-12 medium. All the conditions were done in triplicate. To the cartilage explants recombinant human F-spondin (1 ug/ml) or IL-1 (1 ng/ml) were added and supernatants were collected after 24 h. Both active and total TGF-β1 was estimated. Addition of F-spondin increased the levels of active TGF-β1 observed in explants cultures without significant increase in total latent TGF-β1 secretion.
The effect of F-spondin on latent TGF-β1 activation in OA cartilage explant cultures was studied by ELISA (R&D systems). Unstimulated OA cartilage explants spontaneously released both latent TGF-β1 (˜11 ng/g cartilage) and active TGF-β1 (200 pg/g cartilage) in culture supernatants (FIG. 12).

B1: F-spondin: 110 kDa, secreted, heparin-binding extracellular matrix glycoprotein; used as recombinant protein (R&D systems) or transfected-cell supernatant (protein, UniProt Q9HCB6 29-807, looked up)
Spondin-1: FSDETLDKVPKSEGYCSRILRAQGTRREGYTEFSLRVEGDPDFYKPGTSYRVTLSAAPPSYFRGFTLIALRENREGDKEEDHAGTFQIIDEEETQFMSNCPVAVTESTPRRRTRIQVFWIAPPAGTGCVILKASIVQKRIIYFQDEGSLTKKLCEQDSTFDGVTDKPILDCCACGTAKYRLTFYGNWSEKTHPKDYPRRANHWSAIIGGSHSKNYVLWEYGGYASEGVKQVAELGSPVKMEEEIRQQSDEVLTVIKAKAQWPAWQPLNVRAAPSAEFSVDRTRHLMSFLTMMGPSPDWNVGLSAEDLCTKECGWVQKVVQDLIPWDAGTDSGVTYESPNKPTIPQEKIRPLTSLDHPQSPFYDPEGGSITQVARVVIERIARKGEQCNIVPDNVDDIVADLAPEEKDEDDTPETCIYSNWSPWSACSSSTCDKGKRMRQRMLKAQLDLSVPCPDTQDFQPCMGPGCSDEDGSTCTMSEWITWSPCSISCGMGMRSRERYVKQFPEDGSVCTLPTEETEKCTVNEECSPSSCLMTEWGEWDECSATCGMGMKKRHRMIKMNPADGSMCKAETSQAEKCMMPECHTIPCLLSPWSEWSDCSVTCGKGMRTRQRMLKSLAELGDCNEDLEQVEKCMLPECPIDCELTEWSQWSECNKSCGKGHVIRTRMIQMEPQFGGAPCPETVQRKKCRIRKCLRNPSIQKLRWREARESRRSEQLKEESEGEQFPGCRMRPWTAWSECTKLCGGGIQERYMTVKKRFKSSQFTSCKDKKEIRACNVHPC
For B1, the COX-2 gene/gene product ([1]; chondrocytes) was “induced”, the mPGES gene/gene product ([1]; chondrocytes) was “induced” and the AGC1 regulation ([1]; preliminary, monolayer culture) was “AGC1*”. The BMP-2 regulation ([1]; preliminary, monolayer culture) was “BMP-2*”, the COL2A1 regulation ([1]; preliminary, monolayer culture) was “COL2A1*” and the IL-1β regulation ([1]; preliminary, monolayer culture) was “IL-1β**”. The IL-6 regulation ([1]; preliminary, monolayer culture) was “IL-6*”, the IL-8 regulation ([1]; preliminary, monolayer culture) was “IL-8*” and the MMP-1 regulation ([1]; preliminary, monolayer culture) was “MMP-1**”. The MMP-13 regulation ([1]; preliminary, monolayer culture) was “MMP-13*”, the PGE2 regulation ([1]; preliminary, monolayer culture) was “PGE2*” and the TGF-β regulation ([1]; preliminary, monolayer culture) was “TGF-β*”. The TNFα regulation ([1]; preliminary, monolayer culture) was “TNFα**”, the MMP-13 secretion [2] was “increase” and the “type II collagen degradation” value [2] was “increase”. The “increase of active TGF-β1” value [3] was 225%, the “total latent TGF-β1 synthesis” value [3] was “without significant changes” and the “active TGF-β1 in culture supernatants” value ([3]; unstimulated 200 pg/g cartilage) was 550 pg/g cartilage.
